In US20240150460A1 (SHENGHE CHINA BIOPHARMACEUTICAL, published 2024) one finds Kd data, which are given here for 14 molecules.

Where a chain is given by its changes, count along the chain named.

In the assay the target is T1, human NKp30-his protein (KACTUS; Cat: NKP-HM430) (human, UniProt O14931 19-135, limits assumed).
T1 construct: Bought protein (KACTUS NKP-HM430); not shown: His tag
T1 sequence (looked up): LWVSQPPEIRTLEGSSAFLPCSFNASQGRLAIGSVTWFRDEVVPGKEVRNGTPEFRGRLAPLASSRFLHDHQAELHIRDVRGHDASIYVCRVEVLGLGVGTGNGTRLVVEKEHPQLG
Put plainly: BLI (Octet Red96e), antibody captured on AHC sensor, 100 nM human NKp30-his in solution, 1:1 fit. Here is the method: After equilibration of the AHC sensor with 0.02% PBST (0.02% Tween 20, pH 7.4, 1*PBS) as buffer for 60 s, the NKp30 antibody in the sample plate was immobilized for 300 s and second equilibration was performed for 180 s. […] human NKp30-his protein (KACTUS; Cat: NKP-HM430) was bound with NKp30 antibody for 300 s and then dissociated for 600 s. After dissociation, 10 mM glycine (pH 2.0) was used as regeneration buffer to regenerate for 30 s.
Subtract the result plot for reference channel H1 from the test result plot. The experimental data fit the 1:1 binding model. The molecular weight of 35 kDa was used to calculate the molar concentration of human NKp30 protein.
(BLI is a label-free optical method that tracks binding on a fibre tip over time.)

B1: antibody 12 (antibody, V domains shown)
VH: EVQLVESGGDLVQPGGSLRLSCAAFGSSFSIDMMGWYRQVPGKQRELVAGITKGGFADYADSVKGRFTISMDAAKNTVYLQMNSLKPEDTAVYYCNTLPTHSDWGQGTQVTVSS
notes: expressed in CHO cells
In the case of B1, the Kd turned out to be 0.491 nM.

B2: antibody 19 (antibody, V domains shown)
VH: B1 VH with L4V
notes: expressed in CHO cells
The molecule B2 showed a Kd of 1.81 nM.

B3: antibody 2 (antibody, V domains shown)
VH: QVQLVESGGGLVQPGGSLRLSCAASGSIFSVNEMGWYRQAPGKLRELVAAITSDGTTAYADSVKGRFTISRDNAKNTVYLQMNSLKPEDTAVYDCNTWPEARGDWGQGTQVTVSS
notes: expressed in CHO cells
On to B3, for which the Kd was found to be 0.597 nM.

B4: antibody 14 (antibody, V domains shown)
VH: B3 VH with V2L, A24V, G26A, E100Q
notes: expressed in CHO cells
Molecule B4 had a Kd of 1.35 nM.

B5: antibody 22 (antibody, V domains shown)
VH: QVQLVESGGGLVQPGGSLRLSCAASGSIFSANVMGWYRQAPGKLRELVAGMHSGGSANYADSVKGRFTISKDNAKNTMYLQMNSLKPEDTAVYYCNFGLGFDGHDYWGQGTQVTVSA
notes: expressed in CHO cells
B5 gave a Kd of 2.31 nM.

B6: antibody 3 (antibody, V domains shown)
VH: QLQLVESGGGLVQTGDSTKLSCTASGRSFSINDMGWYRQAPGKLRELVAGITSGGSTNYADSVKGRFTISRDNAKNTVYLQMNSLKPEDTAVYYCNVLGWPDFGSWGQGTQVTVSS
notes: expressed in CHO cells
As for B6, the Kd amounted to 2.07 nM.

B7: antibody 15 (antibody, V domains shown)
VH: EVQLVESGGGSVQTGGSLRLSCAASGPTFNFYGMAWFRQAPGKEREFVASIIPGSGDTSYASSVRGRFTISEDNARNNAYLQMNTLKPEDTAVYYCAAGTGGIYSSDYPYWGQGTQVTVSS
notes: expressed in CHO cells
Turning to B7, the Kd amounted to 0.347 nM.

B8: antibody 17 (antibody, V domains shown)
VH: QLQLVESGGGLVQPGGSLRLSCAASGSIDSINAMGWYRQAPGKLRELVAGITRGGDVNYADSVKGRFTISRVDARNTVTVYLQMNSLKPEDTAVYYCNNLGFPSDWAQGTQVTVSS
notes: expressed in CHO cells
Regarding B8, the Kd worked out at 1.26 nM.

B9: antibody 13 (antibody, V domains shown)
VH: EVQLVESGGGLVQPGGSLRLSCAASGGIFGSTHMGWYRQAPGKLREMVAGITSTGNHRNVADSVKGRFTISKDNAKNTLYLQMNSLKPEDTAVYYCNSFPDQVFNWGQGTQVTVSS
notes: expressed in CHO cells
As to B9, the Kd is 0.433 nM.

B10: antibody 16 (antibody, V domains shown)
VH: EVQLVESGGGLVQAGGSLRLSCAASGISLITYNMGWYRQAPGKLRELVAGITTGGITDYTDSVKGRFTISRDNAKNTLYLQMNSLKPEDTAVYYCDTLGMANYWGQGTQVTVSS
notes: expressed in CHO cells
Molecule B10 showed a Kd of 0.997 nM.

B11: antibody 20 (antibody, V domains shown)
VH: EVQLVESGGGLVQPGGSLRLSCAASGSAFSIEPWGWYRQAPGQLRELVAGITSDDKTDYADSVKDRFTISRDNAKNTVFLQMNSLKPEDTAVYYCNVLGWPRDDYWGQGTQVTVSS
notes: expressed in CHO cells
For B11, the Kd was found to be 1.25 nM.

B12: antibody 21 (antibody, V domains shown)
VH: EVQLVESGGGLVQPGGSLRLSCAASGSTYAFYNMGWFRQRPGKEREFAAAILWGRSGVYTTYADSVKGRFTISRDNAQNTVYLQMNSLKPEDTAVYYCAAGLGTMRANEYDYWGQGTQVTVSS
notes: expressed in CHO cells
With B12, the affinity, expressed as Kd, was 20.1 nM.

B13: antibody 11 (antibody, V domains shown)
VH: EVQLVESGGGLVQPGESLRLSCVASGGDFRFKSMGWYRQAPGKLRELVAGITTGGVTDYADSVKGRFTISRDNANKAVWLQMNRLKPDDTAVYDCNTLGAAAYDWGQGTQVTVSS
notes: expressed in CHO cells
As for B13, binding was put at a Kd of 3.06 nM.

B14: antibody 1 (antibody, V domains shown)
VH: QLQLVESGGGTVQTGGSLRLACVVSGPTYSFYDMGWFRRAPGKEREFVAAVTASGDTTIYADSVKGRFTIARDNAKNTVYLQMNSLKSEDTGAYYCAAGEYSSTAATYYYWGQGTQVTVSS
notes: expressed in CHO cells
Regarding B14, the Kd came to 1.46 nM.

As a reminder, the Kd is the equilibrium constant for the complex coming apart. Lower therefore signals a tighter complex.
